{"source": "patent US20210315964A1", "about": "(University of Pennsylvania, published 2021)", "data": [{"target": "T1, recombinant human peroxiredoxin 6 (hPrdx6) (human, UniProt P30041 1-224, limits assumed)", "T1 sequence (looked up)": "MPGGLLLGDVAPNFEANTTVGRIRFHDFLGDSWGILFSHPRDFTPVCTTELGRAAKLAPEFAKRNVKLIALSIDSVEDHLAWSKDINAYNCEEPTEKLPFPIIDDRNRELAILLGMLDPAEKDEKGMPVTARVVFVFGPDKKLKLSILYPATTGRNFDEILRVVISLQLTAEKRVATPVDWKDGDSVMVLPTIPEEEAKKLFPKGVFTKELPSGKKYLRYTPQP", "assay": "cell-based or functional assay", "units": {"aiPLA2 activity of recombinant hPrdx6 with peptide (hPrdx6 only, no peptide: 93.4)": "nmol/min/mg prot."}, "values": [{"binder": "ELYEIKHQIL", "note": "[SEQ ID NO: 12 ELYEIKHQIL (10)]", "aiPLA2 activity of recombinant hPrdx6 with peptide (hPrdx6 only, no peptide: 93.4)": 28.6}, {"binder": "ELQTELYEIKHQIL", "note": "[SEQ ID NO: 10 ELQTELYEIKHQIL (14)]", "aiPLA2 activity of recombinant hPrdx6 with peptide (hPrdx6 only, no peptide: 93.4)": 33.2}, {"binder": "DEELQTELYEIK", "note": "[SEQ ID NO: 15 … (14)]", "aiPLA2 activity of recombinant hPrdx6 with peptide (hPrdx6 only, no peptide: 93.4)": 102}, {"binder": "DEELQTELYEIKHQIL", "note": "[PIP-3 (rat, mouse, 16-mer) DEELQTELYEIKHQIL]", "aiPLA2 activity of recombinant hPrdx6 with peptide (hPrdx6 only, no peptide: 93.4)": 32}, {"binder": "YEIKHQIL", "note": "[SEQ ID NO: 13 YEIKHQIL (8)]", "aiPLA2 activity of recombinant hPrdx6 with peptide (hPrdx6 only, no peptide: 93.4)": 94.4}, {"binder": "IKHQIL", "note": "[SEQ ID NO: 14 IKHQIL (6)]", "aiPLA2 activity of recombinant hPrdx6 with peptide (hPrdx6 only, no peptide: 93.4)": 97.1}, {"binder": "DEELQATLHDFRHQIL", "note": "[PIP-1 (human, 16-mer) DEELQATLHDFRHQIL]", "aiPLA2 activity of recombinant hPrdx6 with peptide (hPrdx6 only, no peptide: 93.4)": 45}, {"binder": "DEELQTELYEI", "note": "[SEQ ID NO: 16 … (12)]", "aiPLA2 activity of recombinant hPrdx6 with peptide (hPrdx6 only, no peptide: 93.4)": 95.7}, {"binder": "QTELYEIKHQIL", "note": "[SEQ ID NO: 11 QTELYEIKHQIL (12)]", "aiPLA2 activity of recombinant hPrdx6 with peptide (hPrdx6 only, no peptide: 93.4)": 31.5}]}, {"target": "T1, recombinant human peroxiredoxin 6 …", "assay": "cell-based or functional assay", "remark": "another data set of the same source", "units": {"aiPLA2 activity of human recombinant Prdx6 with peptide (no peptide, hPrdx6 only: 99.91)": "nmol/min/mg prot."}, "values": [{"binder": "LRFDHHQIL", "note": "[SN020 LRFDHHQIL]", "aiPLA2 activity of human recombinant Prdx6 with peptide (no peptide, hPrdx6 only: 99.91)": 99}, {"binder": "LHEFKHQIL", "note": "[SN022 LHEFKHQIL]", "aiPLA2 activity of human recombinant Prdx6 with peptide (no peptide, hPrdx6 only: 99.91)": 99.4}, {"binder": "LHDFRHIIL", "note": "[SN029 (row of SEQ ID NO: 31) LHDFRHIIL]", "aiPLA2 activity of human recombinant Prdx6 with peptide (no peptide, hPrdx6 only: 99.91)": 97.3}, {"binder": "LKIEYHQIL", "note": "[SN019 LKIEYHQIL]", "aiPLA2 activity of human recombinant Prdx6 with peptide (no peptide, hPrdx6 only: 99.91)": 97.7}, {"binder": "LHDFRHQTL", "note": "[SN029 (row of SEQ ID NO: 33) LHDFRHQTL]", "aiPLA2 activity of human recombinant Prdx6 with peptide (no peptide, hPrdx6 only: 99.91)": 100}, {"binder": "LFKLEHQIL", "note": "[SN023 LFKLEHQIL]", "aiPLA2 activity of human recombinant Prdx6 with peptide (no peptide, hPrdx6 only: 99.91)": 98}, {"binder": "LHDFRHQLL", "note": "[SN028 LHDFRHQLL]", "aiPLA2 activity of human recombinant Prdx6 with peptide (no peptide, hPrdx6 only: 99.91)": 102}, {"binder": "LHDFRPQIL", "note": "[SN025 LHDFRPQIL]", "aiPLA2 activity of human recombinant Prdx6 with peptide (no peptide, hPrdx6 only: 99.91)": 101}, {"binder": "LYDIRHQIL", "note": "[PIP-5 LYDIRHQIL]", "aiPLA2 activity of human recombinant Prdx6 with peptide (no peptide, hPrdx6 only: 99.91)": 29.7}, {"binder": "LHDFRHQIL", "note": "[PIP-2 LHDFRHQIL]", "aiPLA2 activity of human recombinant Prdx6 with peptide (no peptide, hPrdx6 only: 99.91)": 26.2}, {"binder": "LHDFRHNIL", "note": "[SN026 LHDFRHNIL]", "aiPLA2 activity of human recombinant Prdx6 with peptide (no peptide, hPrdx6 only: 99.91)": 99}, {"binder": "LHDFRDQIL", "note": "[SN024 LHDFRDQIL]", "aiPLA2 activity of human recombinant Prdx6 with peptide (no peptide, hPrdx6 only: 99.91)": 102}]}, {"target": "T1, recombinant human peroxiredoxin 6 …", "assay": "cell-based or functional assay", "remark": "another data set of the same source", "units": {"aiPLA2 activity of human recombinant protein with peptide (hPrdx6 only: 92.0)": "nmol/min/mg prot."}, "values": [{"binder": "DEELQTELYEIKHQIL", "note": "[PIP-3 (rat, mouse, 16-mer) DEELQTELYEIKHQIL]", "aiPLA2 activity of human recombinant protein with peptide (hPrdx6 only: 92.0)": 32}, {"binder": "TLHDFRHQI", "note": "[SEQ ID NO: 19 … (10)]", "aiPLA2 activity of human recombinant protein with peptide (hPrdx6 only: 92.0)": 31.5}, {"binder": "LYEIKHQIL", "note": "[PIP-4 LYEIKHQIL]", "aiPLA2 activity of human recombinant protein with peptide (hPrdx6 only: 92.0)": 32.3}, {"binder": "LHDFRHQIL", "note": "[PIP-2 LHDFRHQIL]", "aiPLA2 activity of human recombinant protein with peptide (hPrdx6 only: 92.0)": 29.9}]}]}
